Experimental data reported in US20240101645A1 (HENRY M JACKSON FOUNDATION FOR THE ADVANCEMENT OF MILITARY …, published 2024).

T1: HCoV-HKU1 spike antigens (bead panel) (HCoV-HKU1, UniProt Q5MQD0 13-1300)
T1 sequence: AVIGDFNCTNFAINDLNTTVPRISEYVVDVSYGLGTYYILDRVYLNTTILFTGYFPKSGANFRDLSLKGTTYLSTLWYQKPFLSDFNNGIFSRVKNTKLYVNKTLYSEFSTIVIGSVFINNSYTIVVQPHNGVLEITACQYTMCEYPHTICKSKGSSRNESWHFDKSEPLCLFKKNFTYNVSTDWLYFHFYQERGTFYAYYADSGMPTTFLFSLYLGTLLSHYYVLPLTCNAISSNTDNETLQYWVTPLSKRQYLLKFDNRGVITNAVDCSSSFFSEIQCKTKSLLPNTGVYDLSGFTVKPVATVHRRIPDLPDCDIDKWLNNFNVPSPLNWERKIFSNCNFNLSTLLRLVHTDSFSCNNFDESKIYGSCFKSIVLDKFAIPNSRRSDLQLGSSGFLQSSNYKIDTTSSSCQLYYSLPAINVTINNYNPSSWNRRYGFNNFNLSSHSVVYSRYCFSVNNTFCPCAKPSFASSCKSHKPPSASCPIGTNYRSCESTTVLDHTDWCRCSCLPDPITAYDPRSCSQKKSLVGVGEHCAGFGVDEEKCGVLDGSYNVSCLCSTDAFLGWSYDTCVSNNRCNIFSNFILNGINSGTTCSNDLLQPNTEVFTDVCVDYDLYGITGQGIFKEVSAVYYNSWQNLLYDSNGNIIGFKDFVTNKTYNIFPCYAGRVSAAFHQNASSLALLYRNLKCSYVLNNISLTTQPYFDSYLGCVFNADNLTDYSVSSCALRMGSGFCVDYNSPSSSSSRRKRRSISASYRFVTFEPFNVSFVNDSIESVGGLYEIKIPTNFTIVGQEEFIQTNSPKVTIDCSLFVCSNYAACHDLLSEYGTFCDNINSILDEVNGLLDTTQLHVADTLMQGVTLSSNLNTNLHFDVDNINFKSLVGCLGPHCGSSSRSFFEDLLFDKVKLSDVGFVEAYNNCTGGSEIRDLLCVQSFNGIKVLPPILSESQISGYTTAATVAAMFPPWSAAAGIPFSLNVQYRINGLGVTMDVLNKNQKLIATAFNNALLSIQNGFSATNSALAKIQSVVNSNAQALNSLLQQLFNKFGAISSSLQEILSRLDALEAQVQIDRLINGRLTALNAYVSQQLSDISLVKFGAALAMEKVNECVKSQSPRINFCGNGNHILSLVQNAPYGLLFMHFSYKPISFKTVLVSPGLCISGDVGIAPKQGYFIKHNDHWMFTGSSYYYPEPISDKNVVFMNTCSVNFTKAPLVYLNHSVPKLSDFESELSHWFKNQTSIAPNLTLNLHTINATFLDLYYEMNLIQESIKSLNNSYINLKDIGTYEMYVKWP

T2: HCoV-OC43 spike antigens (bead panel) (HCoV-OC43, UniProt P36334 14-1297)
T2 sequence: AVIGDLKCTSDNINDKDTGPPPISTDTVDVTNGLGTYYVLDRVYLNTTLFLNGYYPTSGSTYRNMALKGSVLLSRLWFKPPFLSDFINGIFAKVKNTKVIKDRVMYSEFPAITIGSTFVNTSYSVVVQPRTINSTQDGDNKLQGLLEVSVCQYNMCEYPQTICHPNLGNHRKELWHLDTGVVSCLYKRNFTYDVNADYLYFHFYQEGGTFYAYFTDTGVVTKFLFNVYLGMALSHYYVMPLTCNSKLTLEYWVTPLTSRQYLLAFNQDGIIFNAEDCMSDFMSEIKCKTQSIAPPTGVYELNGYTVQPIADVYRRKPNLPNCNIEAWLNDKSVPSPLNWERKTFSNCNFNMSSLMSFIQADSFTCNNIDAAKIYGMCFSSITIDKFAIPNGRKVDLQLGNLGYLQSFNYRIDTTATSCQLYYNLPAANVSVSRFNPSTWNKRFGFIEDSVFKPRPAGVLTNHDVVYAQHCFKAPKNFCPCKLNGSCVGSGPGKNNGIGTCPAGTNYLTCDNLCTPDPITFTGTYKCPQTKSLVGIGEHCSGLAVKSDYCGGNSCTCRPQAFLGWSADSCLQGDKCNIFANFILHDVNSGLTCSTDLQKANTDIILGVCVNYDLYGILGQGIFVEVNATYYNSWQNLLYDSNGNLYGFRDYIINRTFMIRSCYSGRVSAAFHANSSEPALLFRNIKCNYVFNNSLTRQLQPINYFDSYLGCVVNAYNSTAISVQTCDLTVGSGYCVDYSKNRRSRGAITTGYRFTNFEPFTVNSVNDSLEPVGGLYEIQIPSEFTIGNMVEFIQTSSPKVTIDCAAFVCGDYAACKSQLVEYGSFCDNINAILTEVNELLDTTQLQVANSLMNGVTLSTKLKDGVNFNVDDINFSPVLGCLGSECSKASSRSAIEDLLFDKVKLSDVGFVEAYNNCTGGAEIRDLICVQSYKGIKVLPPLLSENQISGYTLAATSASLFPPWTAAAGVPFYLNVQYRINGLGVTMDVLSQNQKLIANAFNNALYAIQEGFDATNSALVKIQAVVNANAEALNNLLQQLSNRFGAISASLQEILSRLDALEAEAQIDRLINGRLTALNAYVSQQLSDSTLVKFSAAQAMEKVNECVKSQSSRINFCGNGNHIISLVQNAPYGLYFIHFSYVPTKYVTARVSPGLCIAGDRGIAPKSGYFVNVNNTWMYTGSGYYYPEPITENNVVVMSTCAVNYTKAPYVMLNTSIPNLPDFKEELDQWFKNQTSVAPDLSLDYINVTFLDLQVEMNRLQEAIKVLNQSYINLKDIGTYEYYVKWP

B1: COV_1050 (antibody, V domains shown)
VH: QVQLVESGGGVVQPGRSLRLSCAASRFTFSSYAMHWVRQAPGKGLEWVAVISFDGSNKYYADSVKGRFTIFRDNSKNTLSLQMNSLRTEDTAMYYCASPAGYYESLWGQGTLVTVSS
VL: SYELTQPPSVSVSPGQTARVTCSGDALSKQYGFWYQQKPGQAPTLVIYKDTERPSGIPERFSGSGSGTTVTLTISGVQAEDEADYYCQSTDNSGRWVFGGGTKLTVLG
notes: human IgG1
B2: COV_3088 (antibody, V domains shown)
VH: EVQLVESGGGLVQPGGSLRLSCAASGFTFSSYDMHWVRQATGKGLEWVSAIGTAGDTYYPGSVKGRFTISRENAKNSLYLQMNSLRAGDTAVYYCARGSGWPPFFDYWGQGTLVTVSS
VL: SYELTQPPSVSVAPGKTARITCGGNNIGSKSVHWYQQKPGQAPVLVIYYDSDRPSGIPERFSGSNSGNTATLTISRVEAGDEADYYCQVWDSSSDHHWVFGGGTKLTVL
notes: human IgG1
B3: COV_2057 (antibody, V domains shown)
VH: EVQLVQSGAEVKKPGESLKISCKGSGYSFISYWIAWVRQMPGKGLEWMGIIYPGDSDTTYSPSFQGQVTISADKSISTAYLQWSSLKASDTAIYYCARLLYYSDSSPLDSWGQGTLVTVSS
VL: DIQMTQSPSSLSASVGDRVTITCRASQSISTYLNWYQQKPGKAPNLLIYAASSLQSGVPSRFSGSGSGTDFTLTISSLQPEDFATYYCQQSHSTPRTFGPGTKVDIK
notes: human IgG1
B4: COV_2196 (antibody, V domains shown)
VH: QVQLVQSGAEVKKPGASVKVSCKVSGYTLIELSMHWVRQAPGKGLEWMGGFDPEDAKTIYAQKFQGRVTMTEDTSTDTAYMELSSLTFEDTAVYYCATTPAFMAAAGDFDYWGQGTLVTVSS
VL: QPVLTQPSSVSVSPGQTATITCSGDVLAKKYARWFQQKPGQAPMLVIYKDTERPSGIPERFSGSSSGTTVTLTINGAQVEDEADYYCYSAAAWVFGGGTKLTVL
notes: human IgG1
B5: COV_2054 (antibody, V domains shown)
VH: EVQLVESGGGVLQPGRSLRLSCAASGFTFNNYALHWVRQAPGKGLEWVAVISYDGSSKYYADSVRGRLTISRDNSRNTLYLQMNSLRPEDTAIYYCARDGDGLWLGESFYFDDWGQGTLVTVSS
VL: DIQMTQSPSTLSASVGDRVIITCRASQSISSWLAWYQQKPGKAPKLLIYEASTLQSGVPSRFSGSGSGTEFTLTISSLQPDDSATYYCQQYNSYPVHFSQGTKLEIK
notes: human IgG1
B6: COV_2103 (antibody, V domains shown)
VH: EVQLVESGGGVVQPGRSLRLSCGASGFTFSSYGIHWVRQAPGKGLDWVAVIWHDGSQKYYGDSVKGRFTISRDNSKNTLYLQMNRLRAEDTAVYYCARDSGDDYDSSGYPIGNAFDLWGQGTMVTVSS
VL: DIQMTQSPSTLSASVGDRVTITCRASQFINSWLAWYQQKPGKAPKLLIYKASSLETGVPSRFSGSGSGTEFTLTISSLQPDDFATYYCQQYNTYSFTFGPGTKVDIK
notes: human IgG1

Biological target: T1, HCoV-HKU1 spike antigens (bead panel)
Assay: multiplex bead assay

Binder	binding result
B1	no binding
B2	no binding
B3	no binding
B4	no binding
B5	no binding
B6	no binding

Biological target: SARS-CoV-1 spike antigens (bead panel) (SARS-CoV-1, UniProt P59594 14-1195)
Assay: multiplex bead assay

Binder	binding result
B1	no binding
B2	no binding
B3	no binding
B4	no binding
B5	no binding
B6	no binding

Biological target: T2, HCoV-OC43 spike antigens (bead panel)
Assay: multiplex bead assay

Binder	binding result
B1	no binding
B2	no binding
B3	no binding
B4	no binding
B5	no binding
B6	no binding

Biological target: SARS-CoV-2 S on pseudovirions (Wuhan Hu-1 / IL1/2020, last 18 amino acids removed) (SARS-CoV-2, UniProt P0DTC2 14-1273)
Assay: cell-based or functional assay

Binder	Mean IC50, pSV neutralization [µg/ml]	Mean IC80, pSV neutralization [µg/ml]
B1	≥ 25	≥ 25
B2	≥ 25	≥ 25
B3	0.97	8.99
B4	0.02	23.4
B5	≥ 25	≥ 25
B6	≥ 25	≥ 25
